This note sets out measurements from article doi:10.1101/2024.11.20.624454 (bioRxiv, 2024).

Broadly, the stoichiometry N is the number of molecules, sites or subunits per partner or assembly.

In the test the target is T1, Mus musculus SPO11, MBP-tagged (Mus musculus, UniProt Q9WTK8 1-396).
T1 sequence (looked up): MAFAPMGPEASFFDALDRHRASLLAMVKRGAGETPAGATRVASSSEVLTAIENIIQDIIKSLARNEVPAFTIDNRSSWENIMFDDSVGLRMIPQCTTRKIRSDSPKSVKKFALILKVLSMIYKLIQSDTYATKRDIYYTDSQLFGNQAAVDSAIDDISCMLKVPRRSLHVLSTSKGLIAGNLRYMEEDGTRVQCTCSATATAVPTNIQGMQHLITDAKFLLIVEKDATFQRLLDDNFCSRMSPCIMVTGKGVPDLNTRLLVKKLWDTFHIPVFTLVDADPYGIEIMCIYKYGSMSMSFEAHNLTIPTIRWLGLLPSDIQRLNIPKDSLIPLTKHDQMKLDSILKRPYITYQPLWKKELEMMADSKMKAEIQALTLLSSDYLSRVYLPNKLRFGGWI
Briefly: SEC-MALS.

B1: Mus musculus TOP6BL, HisFlag-tagged (natural protein, UniProt J3QMY9 1-579, looked up)
chain: MERTALAVCEILRYLIIHWKCEAGTAKGTLLDGQLVISIEALRSKHLPDSLHCIITIASTRSVYGGLNFKKFLQEIQPALPRLSAKLALASEEGGRSQDASGIAPCQVTFEVDENSQSLMTDCLVIKHFLRKIIIVHHKLKFSFSVAVNGTLSAETFGAENEPTLRLDNGVTLVVGFQRYVSKPKLNWSEAHCSRIHPVLGHPAPLFIPDAKADTGLLGELTLTPAAALCPSPKGFSSQLCRISSVSIFLYGPLGLPLLSSDQDQPSTAVFRDTSYFIDWKKYNLFMVPNLDLNLDTQSVLPDVNYKAESPEGNQSQNMNAQGPALLLFLFVDFQSDVPVQQAKIWGLHTLLTAHLSAILSESRSTVQQSIQSAVDQVWQLYHHDAKTQQRLQASLSVAVNSIMSVLTGSTRSSFRKTCLQALEAADTQEFGVKLHRIFYDITQHQFLKHCSCDTEQHLTPEKNISAQNTKDQHKNIAQEFPEESIGQAENKRPKRGSPNHGREESRVLGSARDRSPPKSATRDRELTEVSLTARGSQTQAAHGRAQAAEAASPAGGLEDLWLQEVSNLSEWLNPGHRS
For B1, the “stoichiometry N” value was 1.
